In the supplement of paper PMC7877785:
± gives the uncertainty stated by the source.

Assay: self-splicing fitness, log relative to wild type (ln ratio); higher = more splicing; Tetrahymena group I intron in knt gene, E. coli kanamycin selection, DiMSum; sequences stand for … in CUCUCU…GGAGGGAAAAGUUAUCAGGCAUGCACCUGGUAGCUAGUCUUUAAACCAAUAGAUUGCAUCGGUUUAAAAGGCAAGACCGUCAAAUUGCGGGAAAGGGGUCAACAGCCGUUCAGUACCAAGUCUCAGGGGAAACUUUGAGAUGGCCUUGCAAAGGGUAUGGUAAUAAGCUGACGGACAUGGUCCUAACCACGCAGCCAAGUCCUAAGUCAACAGAUCUUCUGUUGAUAUGGAUGCAGUUCACAGACUAAAUGUCGGUCGGGGAAGAUGUAUUCUUCUCAUAAGAUAUAGUCGGACCUCUCCUUAAUGGGAGCUAGCGGAUGAAGUGAUGCAACACUGGAGCCGCUGGGAACUAAUUUGUAUGCGAAAGUAUAUUGAUUAGUUUUGGAGUACUCGUGGUCG
Outline: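 The eight P1ex-region nucleotides of an intron in the knt kanamycin-resistance gene on pET-22b(+) were all randomised and the library put into E. coli BL21(DE3). Six replicate transformations were grown overnight at 37°C or 30°C on LB agar with or without 25 μg/mL kanamycin, together with 100 μg/mL carbenicillin, 50 μM IPTG and 0.2% rhamnose. Colonies were pooled and amplicon-sequenced on an Illumina HiSeq 2500. Fitness from DiMSum is the error-weighted combination of wild-type-normalised replicate fold changes, kanamycin over none.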

Sequence | self-splicing fitness (ln) (30 °C) | self-splicing fitness (ln) (37 °C)
GACCAGCAAUAUUACGGACA | -0.345 ± 0.078 | -0.496 ± 0.081
GACCAGCAAUAUUACGGAUC | -1.45 ± 0.095 | -0.489 ± 0.12
GACCAGCAAUAUUACGGAUU | -0.723 ± 0.049 | -0.029 ± 0.062
GACCAGCAAUAUUACGGGGA | -0.82 ± 0.074 | -0.839 ± 0.087
GACCAGCAAUAUUACGUAAU | -0.385 ± 0.058 | -0.075 ± 0.07
GACCAGCAAUAUUACGUACC | -0.415 ± 0.08 | -0.106 ± 0.098
GACCAGCAAUAUUACGUCAC | -4.24 ± 0.27 | -2.54 ± 0.2
GACCAGCAAUAUUACGUUCU | -0.569 ± 0.078 | -0.975 ± 0.12
GACGAGCAAUAUUACGAGCA | -3.31 ± 0.35 | -2.65 ± 0.3
GACGAGCAAUAUUACGAUGA | -4.01 ± 0.39 | -2.14 ± 0.2
GACGAGCAAUAUUACGCAUG | -3.07 ± 0.25 | -1.61 ± 0.19
GACGAGCAAUAUUACGCCAU | -2.23 ± 0.49 | –
GACGAGCAAUAUUACGCGUC | -2.57 ± 0.5 | –
GACGAGCAAUAUUACGCUAC | -2.62 ± 0.18 | -2.54 ± 0.26
GACGAGCAAUAUUACGCUCU | -3.92 ± 0.27 | -1.64 ± 0.32
GACGAGCAAUAUUACGCUUG | -4 ± 0.26 | -1.27 ± 0.16
GACGAGCAAUAUUACGGACG | -1.64 ± 0.21 | -2.33 ± 0.31
GACGAGCAAUAUUACGGAGG | -3.68 ± 0.26 | -2.97 ± 0.35
GACGAGCAAUAUUACGGAGU | -3.71 ± 0.35 | -2.49 ± 0.24
GACGAGCAAUAUUACGGCAC | -2.53 ± 0.18 | -1.62 ± 0.16
GACGAGCAAUAUUACGGGAC | -3.94 ± 0.31 | -2.23 ± 0.46
GACGAGCAAUAUUACGGGCG | -3.8 ± 0.27 | -1.08 ± 0.17
GACGAGCAAUAUUACGGGUU | -3.77 ± 0.18 | -2.75 ± 0.21
GACGAGCAAUAUUACGUACG | -2.63 ± 0.29 | -2.17 ± 0.33

Sequence | self-splicing fitness (ln) (30 °C) | self-splicing fitness (ln) (37 °C)
GACGAGCAAUAUUACGUGGC | -0.192 ± 0.41 | -1.57 ± 0.22
GACGAGCAAUAUUACGUUAC | – | -0.804 ± 0.25
GACGAGCAAUAUUACGUUGA | -2.36 ± 0.22 | -1.5 ± 0.17
GACGAGCAAUAUUACGUUGC | -4.31 ± 0.3 | -2.48 ± 0.24
GACGAGCAAUAUUACGUUUG | -3.1 ± 0.22 | -1.94 ± 0.26
GACUAGCAAUAUUACGAACC | -1.64 ± 0.17 | -0.0491 ± 0.19
GACUAGCAAUAUUACGAGUA | -0.991 ± 0.067 | -0.253 ± 0.069
GACUAGCAAUAUUACGAUCC | -2.21 ± 0.18 | -1.57 ± 0.2
GACUAGCAAUAUUACGAUGU | -2.24 ± 0.15 | -1.53 ± 0.17
GACUAGCAAUAUUACGAUUA | -0.841 ± 0.069 | -0.413 ± 0.082
GACUAGCAAUAUUACGCCCC | -0.792 ± 0.23 | -0.904 ± 0.27
GACUAGCAAUAUUACGCGAC | -1.59 ± 0.28 | -0.817 ± 0.27
GACUAGCAAUAUUACGCGCG | 0.097 ± 0.11 | -0.349 ± 0.11
GACUAGCAAUAUUACGCGCU | -0.916 ± 0.095 | -0.878 ± 0.12
GACUAGCAAUAUUACGGAGA | -3.49 ± 0.23 | -2.04 ± 0.19
GACUAGCAAUAUUACGGAGU | -4.2 ± 0.25 | -2.87 ± 0.21
GACUAGCAAUAUUACGGUGU | -1.84 ± 0.098 | -0.76 ± 0.1
GACUAGCAAUAUUACGUAAU | -1.31 ± 0.077 | -0.482 ± 0.092
GACUAGCAAUAUUACGUAGG | -1.95 ± 0.091 | -1.03 ± 0.11
GACUAGCAAUAUUACGUAUU | -1.11 ± 0.072 | -0.646 ± 0.079
GACUAGCAAUAUUACGUCGG | -3.55 ± 0.21 | -3.32 ± 0.24
GACUAGCAAUAUUACGUCUC | -1.46 ± 0.16 | -0.484 ± 0.16
GAGAAGCAAUAUUACGAAAU | -3.17 ± 0.23 | -1.63 ± 0.19
GAGAAGCAAUAUUACGAACG | -0.734 ± 0.12 | -0.343 ± 0.17
